According to article PMC11574045, “A cofactor-induced repressive type of transcription factor condensation can be induced by synthetic peptides to suppress tumorigenesis” (The EMBO Journal, 2024):

Tested on: HEK293FT cells transfected with TF library
Assay: Screening of TF condensates based on fluorescent puncta
Type: cell-based
Conditions: Figure 1B numerical data; TF library screen, one value per transcriptional factor
Summary of the method: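 Each TF construct was introduced into HEK293FT cells using PEI at 4.8 μg/ml; glucose deprivation versus normal medium lasted 12 h. Automated confocal-style imaging of tagged TF staining, 50 fields per well, gave the puncta data.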

Molecule	Z score of condensed fraction
SCAND1 (protein, UniProt P57086 1-179, looked up) SCAN domain-containing …: MAATEPILAATGSPAAVPPEKLEGAGSSSAPERNCVGSSLPEASPPAPEPSSPNAAVPEAIPTPRAAASAALELPLGPAPVSVAPQAEAEARSTPGPAGSRLGPETFRQRFRQFRYQDAAGPREAFRQLRELSRQWLRPDIRTKEQIVEMLVQEQLLAILPEAARARRIRRRTDVRITG	-0.8992
SALL1 (protein, UniProt Q9NSC2 1-1324, looked up) Sal-like protein 1: MSRRKQAKPQHFQSDPEVASLPRRDGDTEKGQPSRPTKSKDAHVCGRCCAEFFELSDLLLHKKNCTKNQLVLIVNENPASPPETFSPSPPPDNPDEQMNDTVNKTDQVDCSDLSEHNGLDREESMEVEAPVANKSGSGTSSGSHSSTAPSSSSSSSSSSGGGGSSSTGTSAITTSLPQLGDLTTLGNFSVINSNVIIENLQSTKVAVAQFSQEARCGGASGGKLAVPALMEQLLALQQQQIHQLQLIEQIRHQILLLASQNADLPTSSSPSQGTLRTSANPLSTLSSHLSQQLAAAAGLAQSLASQSASISGVKQLPPIQLPQSSSGNTIIPSNSGSSPNMNILAAAVTTPSSEKVASSAGASHVSNPAVSSSSSPAFAISSLLSPASNPLLPQQASANSVFPSPLPNIGTTAEDLNSLSALAQQRKSKPPNVTAFEAKSTSDEAFFKHKCRFCAKVFGSDSALQIHLRSHTGERPFKCNICGNRFSTKGNLKVHFQRHKEKYPHIQMNPYPVPEHLDNIPTSTGIPYGMSIPPEKPVTSWLDTKPVLPTLTTSVGLPLPPTLPSLIPFIKTEEPAPIPISHSATSPPGSVKSDSGGPESATRNLGGLPEEAEGSTLPPSGGKSEESGMVTNSVPTASSSVLSSPAADCGPAGSATTFTNPLLPLMSEQFKAKFPFGGLLDSAQASETSKLQQLVENIDKKATDPNECIICHRVLSCQSALKMHYRTHTGERPFKCKICGRAFTTKGNLKTHYSVHRAMPPLRVQHSCPICQKKFTNAVVLQQHIRMHMGGQIPNTPVPDSYSESMESDTGSFDEKNFDDLDNFSDENMEDCPEGSIPDTPKSADASQDSLSSSPLPLEMSSIAALENQMKMINAGLAEQLQASLKSVENGSIEGDVLTNDSSSVGGDMESQSAGSPAISESTSSMQALSPSNSTQEFHKSPSIEEKPQRAVPSEFANGLSPTPVNGGALDLTSSHAEKIIKEDSLGILFPFRDRGKFKNTACDICGKTFACQSALDIHYRSHTKERPFICTVCNRGFSTKGNLKQHMLTHQMRDLPSQLFEPSSNLGPNQNSAVIPANSLSSLIKTEVNGFVHVSPQDSKDTPTSHVPSGPLSSSATSPVLLPALPRRTPKQHYCNTCGKTFSSSSALQIHERTHTGEKPFACTICGRAFTTKGNLKVHMGTHMWNSTPARRGRRLSVDGPMTFLGGNPVKFPEMFQKDLAARSGSGDPSSFWNQYAAALSNGLAMKANEISVIQNGGIPPIPGSLGSGNSSPVSGLTGNLERLQNSEPNAPLAGLEKMASSENGTNFRFTRFVEDSKEIVTS	-0.9814
SCRT1 (protein, UniProt Q99M85 1-348, looked up) Transcriptional repressor …: MPRSFLVKKVKLDTFSSADLDSSYGRARSDLGVRLQDKGYLSDYVGPASVYDGDAEAALLKGPSPEPMYAAAVRGELGPAASGSAPPPTPRPELATAAGGYINGDAAVSEGYAADAFFITDGRSRRKAANANAAAAPSTASVAAPDSDAGGGGGPGTRGSGSGSASRGGTRVGAGTEARAGSGATGAGGRHACGECGKTYATSSNLSRHKQTHRSLDSQLARRCPTCGKVYVSMPAMAMHLLTHDLRHKCGVCGKAFSRPWLLQGHMRSHTGEKPFGCAHCGKAFADRSNLRAHMQTHSAFKHFQCKRCKKSFALKSYLNKHYESACFKGGASGPATPAPPQLSPVQA	0.5906
SCX (protein, UniProt Q7RTU7 1-201, looked up) Basic helix-loop-helix …: MSFATLRPAPPGRYLYPEVSPLSEDEDRGSDSSGSDEKPCRVHAARCGLQGARRRAGGRRAGGGGPGGRPGREPRQRHTANARERDRTNSVNTAFTALRTLIPTEPADRKLSKIETLRLASSYISHLGNVLLAGEACGDGQPCHSGPAFFHAARAGSPPPPPPPPPARDGENTQPKQICTFCLSNQRKLSKDRDRKTAIRS	-0.06618
